Experiment: soluble on expression in E. coli; label from the status in PepcDB or PDB records
With “MGSTGETQITPTHISDEEANLFAMQLASASVLPMILKSALELDLLEIIAKAGPGAQISPIEIASQLPTTNPDAPVMLDRMLRLLACYIILTCSVRTQQDGKVQRLYGLATVAKYLVKNEDGVSISALNLMNQDKVLMESWYHLKDAVLDGGIPFNKAYGMTAFEYHGTDPRFNKVFNKGMSDHSTITMKKILETYTGFEGLKSLVDVGGGTGAVINTIVSKYPTIKGINFDLPHVIEDAPSYPGVEHVGGDMFVSIPKADAVFMKWICHDWSDEHCLKFLKNCYEALPDNGKVIVAECILPVAPDSSLATKGVVHIDVIMLAHNPGGKERTQKEFEDLAKGAGFQGFKVHCNAFNTYIMEFLKKV” the “soluble on expression in E. coli” value was “soluble”.
In the case of “ATSYMTCSAYQKVQDSEISFPAGVEVQVLEKQESGWWYVRFGELEGWAPSHYLVLDENEQPDPSGKE”, the “soluble on expression in E. coli” value is reported as “soluble”.
With “MGSDKIHHHHHHMQTPSYFTPASFDFLTKLEHNNNREWFKANQAEYELQVRTPALHFIEAMSGSVVDLSPRLTAVAKKVGGSLMRPQRDSRFSKDKTPYKLNVGIQFRHFQAKDVHAPGLYLHLANDGCFIAAGIWHPESKALNAIRHCIDENPKGYQKAIANLTAAGFELSGDSLSRPPRGFDKSHPLIDELKRKDFIAIKDISLEQVCQLDLVDFCAQQYQYTSALMYYLCFALDLDF” the “soluble on expression in E. coli” value was “not soluble”.
For “GSSPQREPQRVSHEQFRAALQLVVDPGDPRSYLDNFIKIGEGSTGIVCIATVRSSGKLVAVKKMDLRKQQRRELLFNEVVIMRDYQHENVVEMYNSYLVGDELWVVMEFLEGGALTDIVTHTRMNEEQIAAVCLAVLQALSVLHAQGVIHRDIKSDSILLTHDGRVKLSDFGFCAQVSKEVPRRKSLVGTPYWMAPELISRLPYGPEVDIWSLGIMVIEMVDGEPPYFNEPPLKAMKMIRDNLPPRLKNLHKVSPSLKGFLDRLLVRDPAQRATAAELLKHPFLAKAGPPASIVPLMRQNRTR”, the “soluble on expression in E. coli” value was “soluble”.
For “MGSDKIHHHHHHMKSIMDSLFDSPVQTARSSSDSDAHNFFKAGPYAPLAARMRPQSLDEVVGQRHLLDSGKPLQRLIAGSGDASVILYGPPGTGKTTIASLISAGTGHEFVGLSALNSGVKEIREVIDQARRNLIHGKRTVLFIDEVHRFSKTQQDALLAAVENRTVLLVAATTENPSFSVVAPLLSRSLILQLKPLTHDDIKTVLLHALQDKRGLDNRITISDEALEQLVLLSGGDARRSLTYLEAASESLADGEELTPEIIRHNVDKAIVRYDRDGDQHYDVVSAFIKSMRGSDVDAALHYLARMIDAGEDPRFIARRLVIHASEDVGMADPQALSVAVAASQAVALIGMPEARINLAQATIHLATAPKSNAVITAIDAALADVKQGKTGPVPAHLRDGHYAGAKQLGNAVGYKYPHDDPRGIVEQQYIPNGLEDVVYYRPSEHGAEQRIESYLGKLRRIVRGQRR”, the “soluble on expression in E. coli” value was “not soluble”.
With “MLKDQANQLEFPRDFLGISLADQPNKYYFIIRTQRIVLEADSSIQLIMEKLQSYKSKVALYFDGFQYQLGDFRLRVGKVVPTHSENVRGIVMEVEYLPISSMEKAQKVMEEFLEIWNEALAKRSLPGKFVNIDLNFGEFGLGDIYTPQHTAVRYALVMAHMIATVQAVRG” the “soluble on expression in E. coli” value was “soluble”.
With “MGSDKIHHHHHHVTEPIRLYYWPAPNFGDALSHLVVEHVSGRPVVNARPKQAELFALGSLMHVISRHWTERVRGEGPLLWGTGLLNPFYRKEFLENVRVRLLRGPISAAFLRLKMTEFGDPGLLADEAVGPVEDRHDRVAIVPHHSQMDDPRFVEMVEADPALHLIDVRLDPVTVCREIAASAHVFSASLHGLIVADAYGVANTWMDPEAQGRLKYHDYAAAIGRDMIAPVEIRDVPKAARTARDRPFPYADGIARCRESLHRHFPAELRAPLRATAS” the “soluble on expression in E. coli” value was “not soluble”.
With “MGSDKIHHHHHHMSTVHDEMGVMNTTVKFLHSSDLQIGMTRWFLSDEAQARFDDDRIRAIEKMGKIARKNQCEFIVLAGDVFEHNSLEQRTTGRALEALRSLKLPVYLLPGNHDPLTADSLFYRAKDIDGVTILSDTTVHGVAPGVEIIGAPLLHKMATSDLVAEALKDLEPTSNVRIAVGHGQAEARTTDHRADLIDLNTVEAKLADGTIDYLALGDTHSAQPVGTSGKVWFSGAPETTDFHDLDPDRVGGEVNSGKVLIVSASKGDVSVEEVEVGKWTFHALSKEITSGTDVEDFLDTLQAYPDKSRTVIKYGLRGTITLEQNRRLEEGIAGLEDVFASLKPRERTTDLVLEPGEEELANLDATGYAAEVLRELADSVVNGAAPEEDRDALNLLFRLSREV” the “soluble on expression in E. coli” value was “not soluble”.
In the case of “SDPRGTKRGAEKTEVAEPRNKLPRPAPSLPTDPALYSGPFPFYRRPSELGCFSLDAQRQYHGDARALRYYSPPPTNGPGPNFDLRDGYPDRYQPRDEEVQERLDHLLCWLLEHRGRLEGGPGWLAEAIVTWRGHLTKLLTTPYERQEGWQLAASRFQGTLYLSEVETPNARAQRLARPPLLRELMYMGYKFEQYMCAGELPLLHSPLPLPRG”, the “soluble on expression in E. coli” value is reported as “soluble”.
For “MGQLFSSPQSEHQDLASSFTEYFKKFKTGNKIISQDIITLVELSLAKGNIQEANSAIRNALKEIDSTPLNVAVTGESGSGKSSFINTLRGIGHEEKGAAKTGVVEETMERHPYKHPNMPNVVFWDLPGIGTQTFPPKTYLEKMKFYEYDFFIIISATRFKKNDIDLAKAISMMKKEFYFVRTKVDSDLNNEEDFKPQNFDREKVLQNIRLNCVNTFKENGIAEPQIFLVSNKNVCHYDFPVLIDRLISDLPLYKRQNFMLSLPNITESAIEKKQQFLKQSIWLEGFAPDLLSIKPSLAFLNSDLETLEKSMKFYRSVFGVDEASLKSLATAWKIPVDQVEAMMKSPAVFKPTDEETIQERLSRYVLEICFANRYLFRKNLFLRNVFYLKYYFLDMVTEDAKTLLKEIYLRNKLPSN”, the “soluble on expression in E. coli” value was “not soluble”.
In the case of “MIEIKDKQLTGLRFIDLFAGLGGFRLALESCGAECVYSNEWDKYAQEVYEMNFGEKPEGDITQVNEKTIPDHDILCAGFPCQAFSISGKQKGFEDSRGTLFFDIARIVREKKPKVVFMENVKNFASHDNGNTLEVVKNTMNELDYSFHAKVLNALDYGIPQKRERIYMICFRNDLNIQNFQFPKPFELNTFVKDLLLPDSEVEHLVIDRKDLVMTNQEIEQTTPKTVRLGIVGKGGQGERIYSTRGIAIGLSAYGGGIFAKTGGYLVNGKTRKLHPRECARVMGYPDSYKVHPSTSQAYKQFGNSVVINVLQYIAYNIGSSLNFKPY”, the “soluble on expression in E. coli” value is reported as “soluble”.
In the case of “SLADYYQVQLNMMPPVNLTVLDHCVENYSWNQMMEQAKLYADMFGFHKYWSVDEDDISTGFTALRSIVMSSSNGQIKMPINEPVKSIMKGQIEEFNDFNGGPGIQHIAFRTNNIIETVMALMQRGVEFNHTSENYYNNLKQRLNNDGIKLYEDFDTLRSLNILIDYDPSEG”, the “soluble on expression in E. coli” value is reported as “not soluble”.
For “IKQMLLDWCRAKTRGYEHVDIQNFSSSWSDGMAFCALVHNFFPEAFDYGQLSPQNRRQNFEVAFSSAETHADCPQLLDTEDMVRLREPDWKCVYTYIQEFYRCLVQKGLVKTKKS”, the “soluble on expression in E. coli” value was “soluble”.
In the case of “MGSDKIHHHHHHMADNETIPSCANCSAVWQKSGTTNCWSSPDNRPGQPANCPSKTSPDIIDESFAEYRGDGDDARLARVAARVEGLCYQKMQGSDAVVARWTRVEDTVALAKLMGWTKVGIATCIGLLEETKQLVTILEAQGLEPASVCCKSGSIDKLELGLEESDKVRPGTFEPACNPIAQAEILNRCGTQMNIIVGLCVGHDMLFTKHSKAPVTTLVCKDRVTGHNPAAVLYGQNFYYKRLKVQPVAVPTEEK”, the “soluble on expression in E. coli” value is reported as “not soluble”.
With “MGSDKIHHHHHHMLITNVRPWGGDNVDLEVHEGRIAAVHPAGTGDVSADAAGGTIDGRGRIAFPAFTDVHVHLDSTRIGLPFREHTASPGVWNMMCNDRENWRDTPIPYADVVAGTLERMIARGTTRVRSYAQIDVDCKLERFEAVLAAKERFAHAAEVEVMAFPQAGLLLEDGTVPLLEEALRAGATTIGGIDPCQLDRDPARHLDIVFELAEKYGVDVDIHLHEPGHLGVFSAELIFERTRALGMQGRVSLSHAYDLANVHPDVTARIVEQMAELDVAWATVAPASGGAQFDLARMTEAGIRVGLGEDGQRDYWSPYGNCDMLDRTWQLAFTHRLRKDRLIEHCAAIATVGGASIMDRTVPRLTSPDDRPGLTPGDRADVVLVDGETVTSTVMDRGTDRTVIHDGRLVADGLAVLPRAAG” the “soluble on expression in E. coli” value was “not soluble”.
For “MPIASYAQELKLALHQYPNFPSEGILFEDFLPIFRNPGLFQKLIDAFKLHLEEAFPEVKIDYIVGLESRGFLFGPTLALALGVGFVPVRKAGKLPGECFKATYEKEYGSDLFEIQKNAIPAGSNVIIVDDIIATGGSAAAAGELVEQLEANLLEYNFVMELDFLKGRSKLNAPVFTLLNAQKEALKK”, the “soluble on expression in E. coli” value was “soluble”.
In the case of “MEKKLPRIKALLTPGEVAKRSGVAVSALHFYESKGLITSIRNSGNQRRYKRDVLRYVAIIKIAQRIGIPLATIGEAFGVLPEGHTLSAKEWKQLSSQWREELDRRIHTLVALRDELDGCIGCGCLSRSDCPLRNPGDRLGEEGTGARLLEDEQN”, the “soluble on expression in E. coli” value is reported as “soluble”.
In the case of “MGSDKIHHHHHHMVTKTKTRLGNQRPTQSVTLHYVESLAHEAIELYQKTGRNCYPWQVNLLENIMGIDNNGLWVHQKYGYAIPRRNGKTEDVYILELWALHHGLRILHTAHRISTSHSSFEALKKLLEDMGYVEDVDFVSNKAKGQERIEFKSTGSVIQYRTRTSNGGLGEGFDLLIIDEAQEYTVEQESALKYTVTDSDNPMTVMCGTPPTMVSTGTVFTNFRTKVLAGKSEYSGWSEWSVEDIKDVNDIDSWYLTNPSLGYHLTERKIKAEIGDDELDHNIQRLGYWPSFNQKSAISENEWKRLKVDDVPELSGKLFVGIKYGQDGSNVSMSIAARTIDKKIFIEVIDCQSVRNGMQWIINFLQTADIEKVVVDGANGQTLLANEMKDFKLREPIMPTVSEIITANSVWEQAIVQETLRHANQPSLTEVVTNCDKRNIGSNGGFGYKSLYDDRDISLMDSALLAHWVCYMTKPKRKQRISY”, the “soluble on expression in E. coli” value is reported as “not soluble”.
For “MGSDKIHHHHHHMNKHIASMLLGALLLNVGCSAIMSEKGFITQDKQVTQFNTEYIEKLAQSLPQHMVNQISIDGDEQVSLKGLFIDNPNSHTLVFFIQGNGMKVDPDSLAVLLTLSQLGTDIAIFDRRGLGASNGQATIANLLTDAIQELTFIRHTYQPDKVIVHGYSLGSFIAAQLVKNQAADALVMQGSATNVDDWIATKIPWYMPFLTVETPESFKLVDNQEVVSKFYQGPLMVIGAEKDDQVPAELSEKLFLASQSKIKSLIIVPKANHGEMLNSAKTMQAYREFLARI”, the “soluble on expression in E. coli” value was “not soluble”.
With “MWDKRELTDLAIISAIGIDRTNDSNYVLHLQIINPGNVAGGLQGGGAGDRPPVSVYSIEGNNITEALRKASMKVSRRLYFAHTNLVVINEKLAKEEGLDFVLDNLDRDTEFRTTATFVVAHKTKAENIVKILTPIDKIPSNKVNKTLDFTEAQYGRVVKINIQDVLKTLAANTMAPVIPGYMMIGDDKKGVSMENTQATDPKAILQADGLAVFDKAGYLKYWLEDDESVGAVWLMNKIQHTFINADWGKTKDAVSLQVTHQDTKLVPKMRNGRPYIHVKVSVEGIIDAVKYPFQLSDPKVLAAIEKALNKELEKEISHTVKKIKKNKIDFIGFGDTIYRKYPEQWEKMKDTWDKEYLPELPIDVKAETYIRRTGLRNNPIKHQFKDDLEHHHHHH” the “soluble on expression in E. coli” value was “not soluble”.
With “MSLSLEERERAVELYFTTPMTTAQVVEHLGYPTRQCLERWLAMDSRYAGHMAKPIIPLETRRRAVELVLGGMQQKQAAKQLGVSVGAVHGWVRAYRKGGMAALQPKNRNSAQGNKPADSRRRPSAADDDDAEALRRRVEELELENALMREVVEVVKKDPGADLRRLSNREKTLLIDRLRPAYSLRSMTCLLAIAPSSYHYHHARLGVDKYAGLRAEVAGAFADSKGRYGYRRIKAVLKTGVSEKVVRRIMAEEGLVAHVPKRRRYSSYEGETTPAPANLVDRDFTAERPNEKWLTDISEIKARDGKVYLSPMIDCFDGKIVAYTAGFSPNAELANRMLEKAASTLPGNARPLVHSDRGCHYRWPGWLGLMERFGLTRSMSAKGCSPDNAAAEGFFGRMKTESVYPEHWEKRTRDEVLILIDDYIRWYNHERIKRSLGWMSPVQYRQSQGMAEGHHHHHH” the “soluble on expression in E. coli” value was “not soluble”.
